This note sets out measurements from paper PMC6150488 (Cell reports, 2018).

The experiment addresses glycogen-synthase kinase 3β (GSK3β) (UniProt P49841 1-420). Briefly: SPR.

B1: Nav1.6 C-terminal tail (domain or fragment)
chain: LENFSVATEESADPLSEDDFETFYEIWEKFDPDATQFIEYCKLADFADALEHPLRVPKPNTIELIAMDLPMVSGDRIHCLDILFAFTKRVLGDSGELDILRQQMEERFVASNPSKVSYEPITTTLRRKQEEVSAVVLQRAYRGHLARRGFICKKTTSNKLENGGTHREKKESTPSTASLPSYDSVTKPEKEKQQRAEEGRRERAKRQKEVRESKC
For orientation: Kd means a measure of binding affinity in units of concentration. B1 gave a Kd of 165 nM.
